Like-named read-outs stand apart in the source and are kept apart here.
T1: FtsZ (purified, C. crescentus) (Caulobacter crescentus, UniProt B8H080 1-508)
T1 sequence (looked up): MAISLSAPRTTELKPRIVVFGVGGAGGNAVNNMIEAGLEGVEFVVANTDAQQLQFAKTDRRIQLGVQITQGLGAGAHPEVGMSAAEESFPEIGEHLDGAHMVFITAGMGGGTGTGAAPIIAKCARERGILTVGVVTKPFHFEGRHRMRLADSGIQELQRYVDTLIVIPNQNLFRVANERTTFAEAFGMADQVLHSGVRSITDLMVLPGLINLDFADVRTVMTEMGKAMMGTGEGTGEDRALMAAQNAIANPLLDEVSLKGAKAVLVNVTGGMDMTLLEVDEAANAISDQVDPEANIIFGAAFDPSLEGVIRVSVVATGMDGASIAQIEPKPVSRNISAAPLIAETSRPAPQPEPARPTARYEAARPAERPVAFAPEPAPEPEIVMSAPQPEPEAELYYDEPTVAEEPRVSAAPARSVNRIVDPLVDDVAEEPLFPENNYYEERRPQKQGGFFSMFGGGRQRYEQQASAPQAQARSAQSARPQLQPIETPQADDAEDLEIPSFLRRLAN


Legend:
[1] = biological target: T1, FtsZ (purified, C. crescentus)
[2] = biological target: T1, FtsZ (purified, C. crescentus); assay: co-sedimentation; low speed co-pelleting (higher order structures): 4 µM FzlA variant ± 2 µM FtsZ, 50 mM MES pH 6.5, 50 mM KCl, 2.5 mM MgCl2, 2 mM GTP, 16 000 x g 15 min room temperature; conditions: both partners purified
[3] = biological target: T1, FtsZ (purified, C. crescentus); assay: co-sedimentation; high speed co-pelleting: 4 µM FzlA variant ± 2 µM FtsZ, 50 mM MES pH 6.5, 50 mM KCl, 10 mM MgCl2, 2 mM GTP, 0.05% Triton X-100, 15 min room temperature, 280 000 x g 15 min 25°C; Coomassie gel quantified; conditions: both partners purified
[4] = biological target: T1, FtsZ (purified, C. crescentus); assay: cell-based or functional assay

| % of FtsZ GTPase rate [1] [%] | fold change of FzlA in pellet (with FtsZ vs. alone), low speed [2] [fold] | fold change of FzlA in pellet (with FtsZ vs. alone), high speed [3] [fold] | % of FtsZ GTPase rate [4] [%] | Molecule |
| --- | --- | --- | --- | --- |
| 85.5 | – | – | – | FzlA^WB1 (D109R E122K) (from UniProt A0A0H3CDY2 1-228) (natural protein) |
| – | 11.1 | 20.4 | – | untagged WT FzlA (natural protein, Caulobacter crescentus, FzlA, Caulobacter crescentus; source: E. coli Rosetta (DE3) pLysS, purified (HisTrap, His6-SUMO cleaved with His6-ULP, second HisTrap flow through)) MSVERTLHHFPLDPASRQVRLALGEKRLPFVEMQVRYWEMPPEFTSLNPSGMPPVLVETKHQRNLVICETRAILEHIEETETEPPLLGRDPAERAEARRLLQWFDRKFDNEVNGFLLHEKMEKRLLRMGAPDLAALRQGREALRMHLGYIESLLQTRDWLAGRRMSLADFAAAAHLSVIDYFGDVPWKDFQAAKTWYMKLKSRPCFRPILADRWPGLAPAAHYDDLDF |
| – | 6.1 | 5.85 | 77.3 | FzlA^UE1 (Y223A D227K F228A) (natural protein, Caulobacter crescentus, FzlA, Caulobacter crescentus, with Y223A D227K F228A; also called unknown essential activity; source: E. coli Rosetta (DE3) pLysS, purified (HisTrap, His6-SUMO cleaved)) MSVERTLHHFPLDPASRQVRLALGEKRLPFVEMQVRYWEMPPEFTSLNPSGMPPVLVETKHQRNLVICETRAILEHIEETETEPPLLGRDPAERAEARRLLQWFDRKFDNEVNGFLLHEKMEKRLLRMGAPDLAALRQGREALRMHLGYIESLLQTRDWLAGRRMSLADFAAAAHLSVIDYFGDVPWKDFQAAKTWYMKLKSRPCFRPILADRWPGLAPAAHADDLKA |
| – | 1.25 | 0.91 | 96.3 | FzlA^NB1 (W38A R124D) (natural protein, Caulobacter crescentus, FzlA, Caulobacter crescentus, with W38A R124D; Self-aggregates under the standard conditions (pH 6.5, 2:1 FzlA:FtsZ); source: E. coli Rosetta (DE3) pLysS, purified (HisTrap, His6-SUMO cleaved)) MSVERTLHHFPLDPASRQVRLALGEKRLPFVEMQVRYAEMPPEFTSLNPSGMPPVLVETKHQRNLVICETRAILEHIEETETEPPLLGRDPAERAEARRLLQWFDRKFDNEVNGFLLHEKMEKDLLRMGAPDLAALRQGREALRMHLGYIESLLQTRDWLAGRRMSLADFAAAAHLSVIDYFGDVPWKDFQAAKTWYMKLKSRPCFRPILADRWPGLAPAAHYDDLDF |
| – | – | 3.51 | 89 | FzlA^NH3 (R144D) (natural protein, Caulobacter crescentus, FzlA, Caulobacter crescentus, with R144D; also called no helices; source: E. coli Rosetta (DE3) pLysS, purified (HisTrap, His6-SUMO cleaved)) MSVERTLHHFPLDPASRQVRLALGEKRLPFVEMQVRYWEMPPEFTSLNPSGMPPVLVETKHQRNLVICETRAILEHIEETETEPPLLGRDPAERAEARRLLQWFDRKFDNEVNGFLLHEKMEKRLLRMGAPDLAALRQGREALDMHLGYIESLLQTRDWLAGRRMSLADFAAAAHLSVIDYFGDVPWKDFQAAKTWYMKLKSRPCFRPILADRWPGLAPAAHYDDLDF |
| – | 9.86 | 9.85 | 55.7 | FzlA^UN1 (P131A) (natural protein, Caulobacter crescentus, FzlA, Caulobacter crescentus, with P131A; also called unknown nonessential activity; source: E. coli Rosetta (DE3) pLysS, purified (HisTrap, His6-SUMO cleaved)) MSVERTLHHFPLDPASRQVRLALGEKRLPFVEMQVRYWEMPPEFTSLNPSGMPPVLVETKHQRNLVICETRAILEHIEETETEPPLLGRDPAERAEARRLLQWFDRKFDNEVNGFLLHEKMEKRLLRMGAADLAALRQGREALRMHLGYIESLLQTRDWLAGRRMSLADFAAAAHLSVIDYFGDVPWKDFQAAKTWYMKLKSRPCFRPILADRWPGLAPAAHYDDLDF |
| – | – | 2.34 | 86.2 | FzlA^NH1 (P131A L136A R137E) (natural protein, Caulobacter crescentus, FzlA, Caulobacter crescentus, with P131A L136A R137E; also called no helices; source: E. coli Rosetta (DE3) pLysS, purified (HisTrap, His6-SUMO cleaved)) MSVERTLHHFPLDPASRQVRLALGEKRLPFVEMQVRYWEMPPEFTSLNPSGMPPVLVETKHQRNLVICETRAILEHIEETETEPPLLGRDPAERAEARRLLQWFDRKFDNEVNGFLLHEKMEKRLLRMGAADLAAAEQGREALRMHLGYIESLLQTRDWLAGRRMSLADFAAAAHLSVIDYFGDVPWKDFQAAKTWYMKLKSRPCFRPILADRWPGLAPAAHYDDLDF |
| – | 1.18 | 1.24 | 98.9 | FzlA^NB2 (E119K) (natural protein, Caulobacter crescentus, FzlA, Caulobacter crescentus, with E119K; source: E. coli Rosetta (DE3) pLysS, purified (HisTrap, His6-SUMO cleaved)) MSVERTLHHFPLDPASRQVRLALGEKRLPFVEMQVRYWEMPPEFTSLNPSGMPPVLVETKHQRNLVICETRAILEHIEETETEPPLLGRDPAERAEARRLLQWFDRKFDNEVNGFLLHKKMEKRLLRMGAPDLAALRQGREALRMHLGYIESLLQTRDWLAGRRMSLADFAAAAHLSVIDYFGDVPWKDFQAAKTWYMKLKSRPCFRPILADRWPGLAPAAHYDDLDF |
| – | – | 7.21 | 85 | FzlA^NH2 (R140D E141K) (natural protein, Caulobacter crescentus, FzlA, Caulobacter crescentus, with R140D E141K; also called no helices; source: E. coli Rosetta (DE3) pLysS, purified (HisTrap, His6-SUMO cleaved)) MSVERTLHHFPLDPASRQVRLALGEKRLPFVEMQVRYWEMPPEFTSLNPSGMPPVLVETKHQRNLVICETRAILEHIEETETEPPLLGRDPAERAEARRLLQWFDRKFDNEVNGFLLHEKMEKRLLRMGAPDLAALRQGDKALRMHLGYIESLLQTRDWLAGRRMSLADFAAAAHLSVIDYFGDVPWKDFQAAKTWYMKLKSRPCFRPILADRWPGLAPAAHYDDLDF |
| – | 12.3 | 59 | 42.6 | FzlA^UE2 (D227K) (natural protein, Caulobacter crescentus, FzlA, Caulobacter crescentus, with D227K; also called unknown essential activity; source: E. coli Rosetta (DE3) pLysS, purified (HisTrap, His6-SUMO cleaved)) MSVERTLHHFPLDPASRQVRLALGEKRLPFVEMQVRYWEMPPEFTSLNPSGMPPVLVETKHQRNLVICETRAILEHIEETETEPPLLGRDPAERAEARRLLQWFDRKFDNEVNGFLLHEKMEKRLLRMGAPDLAALRQGREALRMHLGYIESLLQTRDWLAGRRMSLADFAAAAHLSVIDYFGDVPWKDFQAAKTWYMKLKSRPCFRPILADRWPGLAPAAHYDDLKF |

From paper PMC5760450, “FzlA, an essential regulator of FtsZ filament curvature, controls constriction rate during Caulobacter division” (Molecular Microbiology, 2017)
